In EP1682577B1:

What was measured:
Test in all cases: cell-based or functional assay
CRHR1 = CRHR1 (UniProt P34998)
Melanocortin 5 receptor = Melanocortin 5 receptor (UniProt P33032)
Melanocortin 1 receptor = Melanocortin 1 receptor (UniProt Q01726)
[1] = molecular target: Vasoactive Intestinal Peptide 1 receptor (UniProt P32241)
Sequence of Vasoactive Intestinal Peptide 1 receptor (P32241 31-457): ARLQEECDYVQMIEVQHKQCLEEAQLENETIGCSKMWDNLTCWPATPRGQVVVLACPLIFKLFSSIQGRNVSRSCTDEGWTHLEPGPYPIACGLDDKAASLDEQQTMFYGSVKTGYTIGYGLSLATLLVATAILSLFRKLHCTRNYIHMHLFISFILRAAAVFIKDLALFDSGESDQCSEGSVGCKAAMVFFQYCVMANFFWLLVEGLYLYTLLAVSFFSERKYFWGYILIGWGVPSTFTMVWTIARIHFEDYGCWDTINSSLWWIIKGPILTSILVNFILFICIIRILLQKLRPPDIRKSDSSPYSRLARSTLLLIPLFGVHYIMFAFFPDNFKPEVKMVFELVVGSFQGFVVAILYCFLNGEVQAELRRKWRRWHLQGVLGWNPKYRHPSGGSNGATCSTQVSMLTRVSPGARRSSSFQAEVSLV

Sequence of Melanocortin 5 receptor (P33032 whole entry): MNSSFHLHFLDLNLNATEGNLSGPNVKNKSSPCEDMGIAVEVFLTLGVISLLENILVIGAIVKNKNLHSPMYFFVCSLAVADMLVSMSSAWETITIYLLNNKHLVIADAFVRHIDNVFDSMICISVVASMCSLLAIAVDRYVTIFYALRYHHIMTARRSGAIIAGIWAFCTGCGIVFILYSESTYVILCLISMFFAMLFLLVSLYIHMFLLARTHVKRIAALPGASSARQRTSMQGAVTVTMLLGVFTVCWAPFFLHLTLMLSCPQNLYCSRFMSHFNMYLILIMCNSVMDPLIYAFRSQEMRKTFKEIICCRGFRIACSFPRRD
Sequence of Melanocortin 1 receptor (Q01726 whole entry): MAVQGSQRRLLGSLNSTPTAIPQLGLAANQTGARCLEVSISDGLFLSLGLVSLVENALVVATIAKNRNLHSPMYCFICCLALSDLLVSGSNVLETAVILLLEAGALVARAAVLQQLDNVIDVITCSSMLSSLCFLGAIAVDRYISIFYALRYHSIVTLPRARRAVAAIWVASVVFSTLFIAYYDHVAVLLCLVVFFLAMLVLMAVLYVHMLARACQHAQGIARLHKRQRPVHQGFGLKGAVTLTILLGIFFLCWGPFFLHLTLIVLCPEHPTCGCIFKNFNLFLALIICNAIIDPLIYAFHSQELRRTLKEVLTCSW
Sequence of CRHR1 (P34998 24-415 limits assumed): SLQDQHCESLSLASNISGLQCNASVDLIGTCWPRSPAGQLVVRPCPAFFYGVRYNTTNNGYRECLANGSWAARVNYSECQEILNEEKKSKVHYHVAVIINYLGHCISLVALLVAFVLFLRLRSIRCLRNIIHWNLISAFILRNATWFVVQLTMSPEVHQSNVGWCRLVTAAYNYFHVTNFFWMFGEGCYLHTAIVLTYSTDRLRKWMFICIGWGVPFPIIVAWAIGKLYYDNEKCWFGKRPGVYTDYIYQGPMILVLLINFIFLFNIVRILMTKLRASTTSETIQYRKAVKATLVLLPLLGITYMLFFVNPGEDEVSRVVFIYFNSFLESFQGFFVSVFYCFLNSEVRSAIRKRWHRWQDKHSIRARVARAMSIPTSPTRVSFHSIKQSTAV

Substance: CRF (from UniProt P06850 154-194) (peptide)
- EC50 of cell response (MDC dye) (CRHR1): 0.028 nM
- EC50 of cell response (NY & H30602) (CRHR1): 0.028 nM
- Fmax/ Fb (MDC dye) (CRHR1): 4.2
- Fmax/ Fb (NY & H30602) (CRHR1): 4.3

Substance: [Nle4-D-Phe7]α-MSH (from UniProt P01189 138-150) (peptide)
- EC50 of cell response (MDC dye) (Melanocortin 5 receptor): 2900 nM
- EC50 of cell response (NR& H30602) (Melanocortin 5 receptor): 1300 nM
- EC50 of cell response (NY & H30602) (Melanocortin 5 receptor): 950 nM
- Fmax/ Fb (MDC dye) (Melanocortin 5 receptor): 3.6
- Fmax/ Fb (NR& H30602) (Melanocortin 5 receptor): 3.2
- Fmax/ Fb (NY & H30602) (Melanocortin 5 receptor): 3.4

Substance: α-MSH (from UniProt P01189 138-150) (peptide)
- EC50 of cell response (MDC dye) (Melanocortin 1 receptor): 820 nM
- EC50 of cell response (TB & H30602) (Melanocortin 1 receptor): 770 nM
- Fmax/ Fb (MDC dye) (Melanocortin 1 receptor): 5
- Fmax/ Fb (TB & H30602) (Melanocortin 1 receptor): 5.1

Substance: VIP (from UniProt P01282 125-152) (peptide)
- EC50 of cell response (MDC dye) [1]: 0.0024 nM
- EC50 of cell response (TB & H30602) [1]: 0.005 nM
- Fmax/ Fb (MDC dye) [1]: 4.9
- Fmax/ Fb (TB & H30602) [1]: 5
